Experimental data taken from IntAct's records for PubMed 21708944.

B1: Chromosomal replication initiator protein DnaA (Escherichia coli (strain K12)), P03004 (parent)
chain: MSLSLWQQCLARLQDELPATEFSMWIRPLQAELSDNTLALYAPNRFVLDWVRDKYLNNINGLLTSFCGADAPQLRFEVGTKPVTQTPQAAVTSNVAAPAQVAQTQPQRAAPSTRSGWDNVPAPAEPTYRSNVNVKHTFDNFVEGKSNQLARAAARQVADNPGGAYNPLFLYGGTGLGKTHLLHAVGNGIMARKPNAKVVYMHSERFVQDMVKALQNNAIEEFKRYYRSVDALLIDDIQFFANKERSQEEFFHTFNALLEGNQQIILTSDRYPKEINGVEDRLKSRFGWGLTVAIEPPELETRVAILMKKADENDIRLPGEVAFFIAKRLRSNVRELEGALNRVIANANFTGRAITIDFVREALRDLLALQEKLVTIDNIQKTVAEYYKIKVADLLSKRRSRSVARPRQMAMALAKELTNHSLPEIGDAFGGRDHTTVLHACRKIEQLREESHDIKEDFSNLIRTLSS
partner: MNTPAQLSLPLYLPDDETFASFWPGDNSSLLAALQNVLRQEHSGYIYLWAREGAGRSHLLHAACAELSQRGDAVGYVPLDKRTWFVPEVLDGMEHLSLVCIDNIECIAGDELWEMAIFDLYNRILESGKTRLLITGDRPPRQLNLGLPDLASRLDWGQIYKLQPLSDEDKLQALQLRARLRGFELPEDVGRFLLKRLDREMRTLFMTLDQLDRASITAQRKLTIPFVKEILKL

Variants of: B1
Details: with hda_ecoli hda

Effect of a mutation on the interaction, decreasing interaction:
MSLSLWQQCLARLQDELPATEFSMWIRPLQAELSDNTLALYAPNRFVLDWVRDKYLNNINGLLTSFCGADAPQLRFEVGTKPVTQTPQAAVTSNVAAPAQVAQTQPQRAAPSTRSGWDNVPAPAEPTYRSNVNVKHTFDNFVEGKSNQLARAAARQVADNPGGAYNPLFLYGGTGLGKTHLLHAVGNGIMARKPNAKVVYMHSERFVQDMVKALQNNAIEEFKRYYRSVDALLIDDIQFFANKERSQEEFFHTFNALLEGNQQIILTSDRYPKEINGVEDRLKSRFGWGLTVAIEPPELETRVAILMKKADENDIRLPGEVAFFIAKRLRSNVRELEGALNRVIANANFTGRAITIDFVREALRDLLALQEKLVTIDNIQKTVAEYYKIKVADLLSKRRSRSVARPRQMAMALAKELTNHSGPEIGDAFGGRDHTTVLHACRKIEQLREESHDIKEDFSNLIRTLSS [L422G]
MSLSLWQQCLARLQDELPATEFSMWIRPLQAELSDNTLALYAPNRFVLDWVRDKYLNNINGLLTSFCGADAPQLRFEVGTKPVTQTPQAAVTSNVAAPAQVAQTQPQRAAPSTRSGWDNVPAPAEPTYRSNVNVKHTFDNFVEGKSNQLARAAARQVADNPGGAYNPLFLYGGTGLGKTHLLHAVGNGIMARKPNAKVVYMHSERFVQDMVKALQNNAIEEFKRYYRSVDALLIDDIQFFANKERSQEEFFHTFNALLEGNQQIILTSDRYPKEINGVEDRLKSRFGWGLTVAIEPPELETRVAILMKKADENDIRLPGEVAFFIAKRLRSNVRELEGALNRVIANANFTGRAITIDFVREALRDLLALQEKLVTIDNIQKTVAEYYKIKVADLLSKRRSRSVARPRQMAMALAKELTNHSAPEIGDAFGGRDHTTVLHACRKIEQLREESHDIKEDFSNLIRTLSS [L422A]
MSLSLWQQCLARLQDELPATEFSMWIRPLQAELSDNTLALYAPNRFVLDWVRDKYLNNINGLLTSFCGADAPQLRFEVGTKPVTQTPQAAVTSNVAAPAQVAQTQPQRAAPSTRSGWDNVPAPAEPTYRSNVNVKHTFDNFVEGKSNQLARAAARQVADNPGGAYNPLFLYGGTGLGKTHLLHAVGNGIMARKPNAKVVYMHSERFVQDMVKALQNNAIEEFKRYYRSVDALLIDDIQFFANKERSQEEFFHTFNALLEGNQQIILTSDRYPKEINGVEDRLKSRFGWGLTVAIEPPELETRVAILMKKADENDIRLPGEVAFFIAKRLRSNVRELEGALNRVIANANFTGRAITIDFVREALRDLLALQEKLVTIDNIQKTVAEYYKIKVADLLSKRRSRSVARPRQMAMALAKELTNHSLAEIGDAFGGRDHTTVLHACRKIEQLREESHDIKEDFSNLIRTLSS [P423A]
